# Measurements as given in the supplement of paper PMC5998384.
# What was measured:
# HeLa Kyoto [1] = assay: melting temperature (median over replicates), in situ; higher = more thermally stable
# HeLa Kyoto [2] = assay: solubility in G1/S (NP-40 vs SDS abundance) (log2 ratio); higher = more soluble; details: cell cycle stage: G1/S
# HeLa Kyoto [3] = assay: solubility change mitosis vs G1/S (difference of NP-40 vs SDS log2 ratios) (log2 ratio difference); higher = more soluble in mitosis
# HeLa Kyoto [4] = assay: thermal stability score vs G1/S (z-score of summed log2 fold changes over temperatures); higher = more thermally stable than in G1/S
# [5] = cell cycle stage: early G1 (4.5 h after nocodazole release)
# 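Wherever melting temperature (median over replicates), in situ is given: HeLa Kyoto cells synchronized by double thymidine or nocodazole block, proteins quantified by TMT10plex mass spectrometry, three independent biological replicates.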
# 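Wherever solubility change mitosis vs G1/S (difference of NP-40 vs SDS log2 ratios) is given: synchronized HeLa Kyoto cells (double thymidine block for G1/S, nocodazole release for mitosis), protein amounts in NP-40 versus SDS lysates quantified by mass spectrometry, three biological replicates.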
# 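Wherever solubility in G1/S (NP-40 vs SDS abundance) is given: HeLa Kyoto cells arrested at G1/S by double thymidine block, proteins quantified by TMT10plex mass spectrometry in mild NP-40 versus SDS extracts, three biological replicates.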
# 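Wherever thermal stability score vs G1/S (z-score of summed log2 fold changes over temperatures) is given: synchronized HeLa Kyoto cells, proteins quantified by TMT10plex mass spectrometry, three biological replicates, mitosis taken 0.5 h after nocodazole release, G1/S directly after double thymidine block.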
Sequence,melting temperature (HeLa Kyoto [1]; cell cycle stage: G1/S) [°C],melting temperature (HeLa Kyoto [1]; cell cycle stage: mitosis) [°C],solubility in G1/S (log2) (HeLa Kyoto [2]),solubility change mitosis (log2) (HeLa Kyoto [3]),thermal stability score (HeLa Kyoto [4]; [5]),thermal stability score (HeLa Kyoto [4]; cell cycle stage: mitosis)
MPAVASVPKELYLSSSLKDLNKKTEVKPEKISTKSYVHSALKIFKTAEECRLDRDEERAYVLYMKYVTVYNLIKKRPDFKQQQDYFHSILGPGNIKKAVEEAERLSESLKLRYEEAEVRKKLEEKDRQEEAQRLQQKRQETGREDGGTLAKGSLENVLDSKDKTQKSNGEKNEKCETKEKGAITAKELYTMMTDKNISLIIMDARRMQDYQDSCILHSLSVPEEAISPGVTASWIEAHLPDDSKDTWKKRGNVEYVVLLDWFSSAKDLQIGTTLRSLKDALFKWESKTVLRNEPLVLEGGYENWLLCYPQYTTNAKVTPPPRRQNEEVSISLDFTYPSLEESIPSKPAAQTPPASIEVDENIELISGQNERMGPLNISTPVEPVAASKSDVSPIIQPVPSIKNVPQIDRTKKPAVKLPEEHRIKSESTNHEQQSPQSGKVIPDRSTKPVVFSPTLMLTDEEKARIHAETALLMEKNKQEKELRERQQEEQKEKLRKEEQEQKAKKKQEAEENEITEKQQKAKEEMEKKESEQAKKEDKETSAKRGKEITGVKRQSKSEHETSDAKKSVEDRGKRCPTPEIQKKSTGDVPHTSVTGDSGSGKPFKIKGQPESGILRTGTFREDTDDTERNKAQREPLTRARSEEMGRIVPGLPSGWAKFLDPITGTFRYYHSPTNTVHMYPPEMAPSSAPPSTPPTHKAKPQIPAERDREPSKLKRSYSSPDITQAIQEEEKRKPTVTPTVNRENKPTCYPKAEISRLSASQIRNLNPVFGGSGPALTGLRNLGNTCYMNSILQCLCNAPHLADYFNRNCYQDDINRSNLLGHKGEVAEEFGIIMKALWTGQYRYISPKDFKITIGKINDQFAGYSQQDSQELLLFLMDGLHEDLNKADNRKRYKEENNDHLDDFKAAEHAWQKHKQLNESIIVALFQGQFKSTVQCLTCHKKSRTFEAFMYLSLPLASTSKCTLQDCLRLFSKEEKLTDNNRFYCSHCRARRDSLKKIEIWKLPPVLLVHLKRFSYDGRWKQKLQTSVDFPLENLDLSQYVIGPKNNLKKYNLFSVSNHYGGLDGGHYTAYCKNAARQRWFKFDDHEVSDISVSSVKSSAAYILFYTSLGPRVTDVAT [USP8],49.2,49.3,-0.121,-0.0263,-0.07,-0.00341
MPAVLGFEGSANKIGVGVVRDGKVLANPRRTYVTPPGTGFLPGDTARHHRAVILDLLQEALTESGLTSQDIDCIAYTKGPGMGAPLVSVAVVARTVAQLWNKPLVGVNHCIGHIEMGRLITGATSPTVLYVSGGNTQVIAYSEHRYRIFGETIDIAVGNCLDRFARVLKISNDPSPGYNIEQMAKRGKKLVELPYTVKGMDVSFSGILSFIEDVAHRMLATGECTPEDLCFSLQETVFAMLVEITERAMAHCGSQEALIVGGVGCNVRLQEMMATMCQERGARLFATDERFCIDNGAMIAQAGWEMFRAGHRTPLSDSGVTQRYRTDEVEVTWRD [OSGEP],55.5,55.4,0.0103,-0.136,0.00035,-1.39
MPAVSLPPKENALFKRILRCYEHKQYRNGLKFCKQILSNPKFAEHGETLAMKGLTLNCLGKKEEAYELVRRGLRNDLKSHVCWHVYGLLQRSDKKYDEAIKCYRNALKWDKDNLQILRDLSLLQIQMRDLEGYRETRYQLLQLRPAQRASWIGYAIAYHLLEDYEMAAKILEEFRKTQQTSPDKVDYEYSELLLYQNQVLREAGLYREALEHLCTYEKQICDKLAVEETKGELLLQLCRLEDAADVYRGLQERNPENWAYYKGLEKALKPANMLERLKIYEEAWTKYPRGLVPRRLPLNFLSGEKFKECLDKFLRMNFSKGCPPVFNTLRSLYKDKEKVAIIEELVVGYETSLKSCRLFNPNDDGKEEPPTTLLWVQYYLAQHYDKIGQPSIALEYINTAIESTPTLIELFLVKAKIYKHAGNIKEAARWMDEAQALDTADRFINSKCAKYMLKANLIKEAEEMCSKFTREGTSAVENLNEMQCMWFQTECAQAYKAMNKFGEALKKCHEIERHFIEITDDQFDFHTYCMRKITLRSYVDLLKLEDVLRQHPFYFKAARIAIEIYLKLHDNPLTDENKEHEADTANMSDKELKKLRNKQRRAQKKAQIEEEKKNAEKEKQQRNQKKKKDDDDEEIGGPKEELIPEKLAKVETPLEEAIKFLTPLKNLVKNKIETHLFAFEIYFRKEKFLLMLQSVKRAFAIDSSHPWLHECMIRLFNTAVCESKDLSDTVRTVLKQEMNRLFGATNPKNFNETFLKRNSDSLPHRLSAAKMVYYLDPSSQKRAIELATTLDESLTNRNLQTCMEVLEALYDGSLGDCKEAAEIYRANCHKLFPYALAFMPPGYEEDMKITVNGDSSAEAEELANEI [NAA15],53.9,52.5,-0.262,-0.124,0.92,-0.18
MPFPVTTQGSQQTQPPQKHYGITSPISLAAPKETDCVLTQKLIETLKPFGVFEEEEELQRRILILGKLNNLVKEWIREISESKNLPQSVIENVGGKIFTFGSYRLGVHTKGADIDALCVAPRHVDRSDFFTSFYDKLKLQEEVKDLRAVEEAFVPVIKLCFDGIEIDILFARLALQTIPEDLDLRDDSLLKNLDIRCIRSLNGCRVTDEILHLVPNIDNFRLTLRAIKLWAKRHNIYSNILGFLGGVSWAMLVARTCQLYPNAIASTLVHKFFLVFSKWEWPNPVLLKQPEECNLNLPVWDPRVNPSDRYHLMPIITPAYPQQNSTYNVSVSTRMVMVEEFKQGLAITDEILLSKAEWSKLFEAPNFFQKYKHYIVLLASAPTEKQRLEWVGLVESKIRILVGSLEKNEFITLAHVNPQSFPAPKENPDKEEFRTMWVIGLVFKKTENSENLSVDLTYDIQSFTDTVYRQAINSKMFEVDMKIAAMHVKRKQLHQLLPNHVLQKKKKHSTEGVKLTALNDSSLDLSMDSDNSMSVPSPTSATKTSPLNSSGSSQGRNSPAPAVTAASVTNIQATEVSVPQVNSSESSGGTSSESIPQTATQPAISPPPKPTVSRVVSSTRLVNPPPRSSGNAATSGNAATKIPTPIVGVKRTSSPHKEESPKKTKTEEDETSEDANCLALSGHDKTEAKEQLDTETSTTQSETIQTAASLLASQKTSSTDLSDIPALPANPIPVIKNSIKLRLNR [PAPOLA],51.6,52,0.109,-0.238,1.44,1.67
MPGFDYKFLEKPKRRLLCPLCGKPMREPVQVSTCGHRFCDTCLQEFLSEGVFKCPEDQLPLDYAKIYPDPELEVQVLGLPIRCIHSEEGCRWSGPLRHLQGHLNTCSFNVIPCPNRCPMKLSRRDLPAHLQHDCPKRRLKCEFCGCDFSGEAYESHEGMCPQESVYCENKCGARMMRRLLAQHATSECPKRTQPCTYCTKEFVFDTIQSHQYQCPRLPVACPNQCGVGTVAREDLPGHLKDSCNTALVLCPFKDSGCKHRCPKLAMARHVEESVKPHLAMMCALVSRQRQELQELRRELEELSVGSDGVLIWKIGSYGRRLQEAKAKPNLECFSPAFYTHKYGYKLQVSAFLNGNGSGEGTHLSLYIRVLPGAFDNLLEWPFARRVTFSLLDQSDPGLAKPQHVTETFHPDPNWKNFQKPGTWRGSLDESSLGFGYPKFISHQDIRKRNYVRDDAVFIRAAVELPRKILS [TRAF4],51.3,51.8,-0.439,0.124,0.266,0.814
MPGFLVRILPLLLVLLLLGPTRGLRNATQRMFEIDYSRDSFLKDGQPFRYISGSIHYSRVPRFYWKDRLLKMKMAGLNAIQTYVPWNFHEPWPGQYQFSEDHDVEYFLRLAHELGLLVILRPGPYICAEWEMGGLPAWLLEKESILLRSSDPDYLAAVDKWLGVLLPKMKPLLYQNGGPVITVQVENEYGSYFACDFDYLRFLQKRFRHHLGDDVVLFTTDGAHKTFLKCGALQGLYTTVDFGTGSNITDAFLSQRKCEPKGPLINSEFYTGWLDHWGQPHSTIKTEAVASSLYDILARGASVNLYMFIGGTNFAYWNGANSPYAAQPTSYDYDAPLSEAGDLTEKYFALRNIIQKFEKVPEGPIPPSTPKFAYGKVTLEKLKTVGAALDILCPSGPIKSLYPLTFIQVKQHYGFVLYRTTLPQDCSNPAPLSSPLNGVHDRAYVAVDGIPQGVLERNNVITLNITGKAGATLDLLVENMGRVNYGAYINDFKGLVSNLTLSSNILTDWTIFPLDTEDAVRSHLGGWGHRDSGHHDEAWAHNSSNYTLPAFYMGNFSIPSGIPDLPQDTFIQFPGWTKGQVWINGFNLGRYWPARGPQLTLFVPQHILMTSAPNTITVLELEWAPCSSDDPELCAVTFVDRPVIGSSVTYDHPSKPVEKRLMPPPPQKNKDSWLDHV [GLB1],55.6,57.6,0.0247,-0.293,0.0217,0.602
MPGKLLWGDIMELEAPLEESESQKKERQKSDRRKSRHHYDSDEKSETRENGVTDDLDAPKAKKSKMKEKLNGDTEEGFNRLSDEFSKSHKSRRKDLPNGDIDEYEKKSKRVSSLDTSTHKSSDNKLEETLTREQKEGAFSNFPISEETIKLLKGRGVTYLFPIQVKTFGPVYEGKDLIAQARTGTGKTFSFAIPLIERLQRNQETIKKSRSPKVLVLAPTRELANQVAKDFKDITRKLSVACFYGGTSYQSQINHIRNGIDILVGTPGRIKDHLQSGRLDLSKLRHVVLDEVDQMLDLGFAEQVEDIIHESYKTDSEDNPQTLLFSATCPQWVYKVAKKYMKSRYEQVDLVGKMTQKAATTVEHLAIQCHWSQRPAVIGDVLQVYSGSEGRAIIFCETKKNVTEMAMNPHIKQNAQCLHGDIAQSQREITLKGFREGSFKVLVATNVAARGLDIPEVDLVIQSSPPQDVESYIHRSGRTGRAGRTGICICFYQPRERGQLRYVEQKAGITFKRVGVPSTMDLVKSKSMDAIRSLASVSYAAVDFFRPSAQRLIEEKGAVDALAAALAHISGASSFEPRSLITSDKGFVTMTLESLEEIQDVSCAWKELNRKLSSNAVSQITRMCLLKGNMGVCFDVPTTESERLQAEWHDSDWILSVPAKLPEIEEYYDGNTSSNSRQRSGWSSGRSGRSGRSGGRSGGRSGRQSRQGSRSGSRQDGRRRSGNRNRSRSGGHKRSFD [DDX50],–,50.4,-1.4,0.879,1.27,2.08
MPGKLRSDAGLESDTAMKKGETLRKQTEEKEKKEKPKSDKTEEIAEEEETVFPKAKQVKKKAEPSEVDMNSPKSKKAKKKEEPSQNDISPKTKSLRKKKEPIEKKVVSSKTKKVTKNEEPSEEEIDAPKPKKMKKEKEMNGETREKSPKLKNGFPHPEPDCNPSEAASEESNSEIEQEIPVEQKEGAFSNFPISEETIKLLKGRGVTFLFPIQAKTFHHVYSGKDLIAQARTGTGKTFSFAIPLIEKLHGELQDRKRGRAPQVLVLAPTRELANQVSKDFSDITKKLSVACFYGGTPYGGQFERMRNGIDILVGTPGRIKDHIQNGKLDLTKLKHVVLDEVDQMLDMGFADQVEEILSVAYKKDSEDNPQTLLFSATCPHWVFNVAKKYMKSTYEQVDLIGKKTQKTAITVEHLAIKCHWTQRAAVIGDVIRVYSGHQGRTIIFCETKKEAQELSQNSAIKQDAQSLHGDIPQKQREITLKGFRNGSFGVLVATNVAARGLDIPEVDLVIQSSPPKDVESYIHRSGRTGRAGRTGVCICFYQHKEEYQLVQVEQKAGIKFKRIGVPSATEIIKASSKDAIRLLDSVPPTAISHFKQSAEKLIEEKGAVEALAAALAHISGATSVDQRSLINSNVGFVTMILQCSIEMPNISYAWKELKEQLGEEIDSKVKGMVFLKGKLGVCFDVPTASVTEIQEKWHDSRRWQLSVATEQPELEGPREGYGGFRGQREGSRGFRGQRDGNRRFRGQREGSRGPRGQRSGGGNKSNRSQNKGQKRSFSKAFGQ [DDX21],49.3,50.8,-1.67,0.826,5.09,6.63
